# Test results published in patent publication US20180265915A1, “TRANSCRIPTION FACTOR DECOYS” (priority 2008, published 2018).
# Legend:
# [1] = system: methicillin-resistant strains (MRSA); assay: Sig TFD growth assay on MRSA clinical isolates; type: cell-based, Staphylococcus aureus; conditions: 10 nM TFD; DOTAP, 60 nM Gramicidin
# Protocol: Cholesterol/Cy5-labeled decoy polynucleotides were prepared as in Example 5.1. Typically 1 μg of Sig TFD was then complexed with 0.3 μl of the liposomal transfection reagent DOTAP (1,2-dioleoyl-3-trimethylammonium propane; Roche) and incubated at room temperature for 10 min. The assays to determine their effect on growth of bacterial cells were performed using 96 well plates, each well containing 200 μl of broth consisting of BHI media (Becton Dickinson) supplemented with 60 nM Gramicidin (Sigma Corporation. Cat# G5002). 1 μl of various concentrations of a Cholesterol/Cy5-labeled decoy complexed with TFD were added to each well and the effect on bacterial growth of clinical isolates of S. aureus that had been determined to be methicillin-resistant strains (MRSA) was monitored. Growth was monitored by measuring absorbance of the broth at time intervals during incubation. The plates were incubated at 37° C. with shaking and absorbance readings (at 450 nM) were taken using a plate reader.
# S. aureus ATCC 6538NA = assay: Fur TFD growth assay in non-iron-limiting and iron-limiting media; type: cell-based, Staphylococcus aureus; conditions: 1 nM TFD; DOTAP, 60 nM gramicidin
# Protocol: S. aureus ATCC 6538NA cultures were grown and maintained in BHI media (Becton Dickenson). Frozen stocks were prepared by mixing equal volumes of a culture in early exponential growth (OD of 0.3 at A600) with 50% glycerol and freezing at −80° C. BHI was the media used for non-iron limiting conditions and NRPMI, which had been prepared as previously described (Skaar et al. 2004), for iron-limiting growth conditions.
# A stock solution of gramicidin (Sigma) was freshly prepared by dissolving 21 mg in 1 ml methanol, diluted prior to use in water and further diluting 1/100 in growth medium to give a final concentration of 60 nM. Supplemented media was inoculated 1/100 with the frozen S. aureus stock and incubated at room temperature for 10 min. TFD-DOTAP complexes were formed by mixing 1 ug of TFD with 2 μg of DOTAP (Roche) and incubating at room temperature for 10 min on the bench. The TFD complex was then mixed with inoculated medium, aliquoted into 96 well flat-bottomed plates and growth was analysed by culturing at 37° C. with shaking in a BioTek plate reader.
# To achieve transfection, TFDs were mixed with the commercially available lipid preparation DOTAP to form a stable complex and shield the negative charge of the phosphate backbone. The TFD-DOTAP complex was then mixed with S. aureus in BHI, a non-iron limiting medium, which had been supplemented with 60 nM gramicidin. […]
# EMRSA15 = assay: Lag-time growth assay with antibiotics on EMRSA15; type: cell-based, Staphylococcus aureus; conditions: 10 nM TFD
# Protocol: Sig dumbbell TFD was prepared as described in Example 9.1 (see below). A growth assay was carried out as described in Example 5.2 with a well-characterised MRSA strain, EMRSA15.
# For the cultures treated with the Sig TFD, the lag-time is the delay in growth compared to that seen with the Control TFD in the presence of antibiotic.
# Lagtime is defined as the time that growth is delayed (in comparison to a mock-transfected culture) due to treatment of the TFD.
# S. aureus = assay: Quantification of TFD number by real-time qPCR; type: cell-based, Staphylococcus aureus; conditions: in the presence of the transfection reagents; BHI
# Protocol: Cells from individual wells were washed twice in PBS (phosphate buffered saline) and resuspended in 100 μl water. 1 μl of each sample was used in each qPCR reaction, mixing DNA standards or samples with primers to either amplify the TFD (Tef and Ter; SEQ ID NOs 1 & 2) or 16S rRNA (stypF, 5′-ACGGTCTTGCTGTCACTTATA-3′ (SEQ ID NO: 36); stypR, 5′-TACACATATGTTCTTCCCTAATAA-3′ (SEQ ID NO: 37)) in 12.5 ul of SYBR Green DNA mix supplemented with 0.5 μl of ROX (Invitrogen). The resultant data was used to calculate the number of TFDs present per genome.
# K. pneumoniae [2] = assay: Sigma 54 TFD growth assay, cell penetrating peptide transfection; type: cell-based, Klebsiella pneumoniae; conditions: 10 nM TFD; M9 media; complexed with cell penetrating peptide
# Protocol: Growth assays were performed as described in Section 4.1 with the difference being that the media used was M9 media (Sambrook et al (1989) Molecular Cloning. 2nd Edition vol. 3 p.A3). The media was not supplemented with any co-transfectant.
# Transfection was achieved by complexing the TFD with a cell penetrating peptide. The peptide consisted of two portions: a linear chain of nine D-arginines and a previously described peptide sequence found to be capable of penetrating the membrane of K. pneumoniae (Vaara, Antimicrobial Agents and Chemotherapy (1996) 40:1801). The positively charged arginines (R9) serve to bind the phosphate backbone of the TFD through a charge interaction. The use of such R9 tails to complex transfecting moieties to transfect bacteria has been described previously (Kim, Molecular Therapy (2006) 14:343). The entire sequence of the peptide used was:
# TFDs were mixed with increasing amounts of IKFLKFLKKL-R9 peptide in a TE based buffer supplemented with 5% glucose. The mixture was incubated at room temperature for 1 hour and then either used directly in transfections or analysed by agarose gel electrophoresis. Typically the minimum amount of IKFLKFLKKL-R9 was used that caused the complex with DNA not to run in the gel; i.e. the charge of the nucleic acid backbone had been neutralised by binding of poly-arginine. […]
# K. pneumoniae [3] = assay: KP_Sig TFD growth assay in vitro; type: cell-based, Klebsiella pneumoniae; conditions: PCR_TFD, transfected using a cell penetrating peptide
# Excerpt: Cells were transfected as described in Example 13, using a cell penetrating peptide. […] The two controls used were: untreated cells (K. pneumoniae) and a control TFD consisting of a scrambled sequence.
# [4] = system: clinically-isolated MRSA strain MRSA-5; assay: Dumbbell Sig TFD growth assay on a clinically-isolated MRSA strain; type: cell-based, Staphylococcus aureus; conditions: 10 nM TFD, dumbbell configuration
# Protocol: A growth assay was performed as described in Example 5.1 using the Sig TFD in its dumbbell configuration and a clinically-isolated MRSA strain.
molecule,measurement,setting,value
"Control TFD: unrelated sequence of similar nucleotide composition that does not occur in the S. aureus genome, SEQ ID NOs: 34 & 35 (nucleic acid, listed as Mycobacterium smegmatis, further chemistry not given here) chain 1: TGGCCACGGATCCGGGTGACTGCGGGTCCGTA chain 2: ACGGACCCGCAGTCACCCGGATCCGTGGCCAA",effect on growth of MRSA strains in BHI medium,[1],no effect on bacterial growth
same,"growth of S. aureus in BHI, non-iron limiting medium",S. aureus ATCC 6538NA,reduction of the S. aureus growth rate
same,Lagtime,EMRSA15; Ciprofloxacin 0.5 mg/L (text: 0.5 mg/ml),0.3 h
same,Lagtime,EMRSA15; Erythromycin 0.5 mg/L (text: 0.5 mg/ml),-0.3 h
same,Lagtime,EMRSA15; Methicillin 2 mg/L (text: 2 mg/ml),0.2 h
same,number of TFDs detected per genome,S. aureus,5340 TFDs per genome
same,inhibition of growth of K. pneumoniae culture,K. pneumoniae [2],no inhibition was seen
same,effect on K. pneumoniae cell growth in vitro,K. pneumoniae [3],no effect on cell growth
same,inhibition of cell growth of clinically-isolated MRSA strain,[4],could not
